B1: LINE1-full (parent)
chain: UACGUAGGUGGUUUUCCCCUGAUAGUGCUAAGGGGGCCUGGAAGUUUGGACUGGGCAGAGCUCAACACAGCGUGGCAAAGUGGCUGUGGCUAGACUGCCUCUCUGGAUUCCUCGUCACUCAGCAGGGCAUCUCUGAGAGAAAUGCC

The variants in the data set derive from B1. The experiment in a line: self-cleavage, relative activity (ratio to wild type); higher = more cleavage; in vitro, sequencing; the parent is a self-cleaving ribozyme.
On to A59G G93U, for which the self-cleavage worked out at 0.03.
For U62C C95U, the self-cleavage was found to be 0.03.
As to C63A A121U, the self-cleavage turned out to be 0.
For U62A U73C the value was 0.02; for U62C U115C, 0.1; for U62C U115A, 0.04.
Take U62C C128U: the self-cleavage worked out at 0.03.
For G60A G72A, the self-cleavage turned out to be 0.01.
U62G A138G: the self-cleavage came to 0.09.
For A64C U87C, the self-cleavage came to 0.22.
As for C61U G106A, the self-cleavage is 0.02.
Regarding A59G U91C, the self-cleavage stood at 0.11.
For A59G U91A the value was 0.09; for G60C U102C, 0.06; for U62A G86A, 0.05.
Turning to A64G A78U, the self-cleavage was found to be 0.23.
Turning to U62C A64U, the self-cleavage was determined as 0.05.
Consider U62C A64C, for which the self-cleavage was determined as 0.
G60C U109C: the self-cleavage was 0.1.
For U62C A69U, the self-cleavage worked out at 0.03.
For the variant U62A A121U, the self-cleavage was found to be 0.06.
For C63A A140G, the self-cleavage worked out at 0.
In the case of C61U U100A, the self-cleavage was determined as 0.01.
In the case of C63A A79G, the self-cleavage is 0.12.
As for U62G A77G, the self-cleavage was found to be 0.07.
Consider C63U A79G, for which the self-cleavage was determined as 0.58.
As to U62A C110U, the self-cleavage is 0.08.
As to A64G A124G, the self-cleavage worked out at 0.28.
As to C63U U132C, the self-cleavage amounted to 0.35.
In the case of C63U U132A, the self-cleavage turned out to be 0.46.
In the case of U62A A124G, the self-cleavage was 0.02.
With U62C A136C, the self-cleavage stood at 0.1.
In the case of U62C A136U, the self-cleavage was found to be 0.05.
A59U A79G: the self-cleavage was 0.83.
As for U62A U81C, the self-cleavage is 0.04.
On to U62A U81A, for which the self-cleavage was determined as 0.05.
For U62C G126C the value was 0.01.
Take U62C G126U: the self-cleavage turned out to be 0.04.
Next, A64G A92G: 0.14.
Consider U62C A142G, for which the self-cleavage was determined as 0.06.
As to G60A A124U, the self-cleavage came to 0.02.
For the variant U62A U134A, the self-cleavage was 0.07.
For the variant A64C U115C, the self-cleavage stood at 0.47.
On to A64C U115A, for which the self-cleavage was 0.38.
With U62G U115G, the self-cleavage was determined as 0.14.
For the variant A59U U130A, the self-cleavage stood at 0.74.
Consider C61U A64U, for which the self-cleavage came to 0.06.
Next, A59U C103U: 0.5; U62A C128U: 0.03; U62C U112C: 0.05.
Next, G60A U81C: 0.03; G60A U81A: 0.02; U62C U104A: 0.05.
As for U62C U104C, the self-cleavage stood at 0.07.
With U62A U130A, the self-cleavage was determined as 0.03.
As to A59U A141G, the self-cleavage is 0.96.
As for A59U A141U, the self-cleavage amounted to 1.03.
Take U62C U134C: the self-cleavage stood at 0.05.
For the variant U62C U134A, the self-cleavage stood at 0.05.
Regarding A59U U119C, the self-cleavage turned out to be 0.6.
In the case of A59U U115A, the self-cleavage is 0.8.
U62C C66A: the self-cleavage worked out at 0.02.
Next, C63U A107G: 0.45.
For U62G U130C the value was 0.11; for G60U A117G, 0.04.
For U62C U109C the value was 0.08.
Consider U62C U109A, for which the self-cleavage was found to be 0.03.
In the case of A64C U143C, the self-cleavage came out at 0.35.
Regarding C63U U112C, the self-cleavage amounted to 0.29.
For C61A U130A the value was 0.06.
Take A64C C95A: the self-cleavage was found to be 0.01.
For C61U A77U the value was 0.03.
Take U62C C111A: the self-cleavage was 0.02.
C61U U81A: the self-cleavage came to 0.02.
Turning to G60A A69U, the self-cleavage was determined as 0.03.
Next, G60A A69G: 0.05; A59U C95U: 0.19.
Take U62A A141G: the self-cleavage worked out at 0.05.
A64C U73A: the self-cleavage came to 0.32.
In the case of C61U A141G, the self-cleavage amounted to 0.05.
Turning to U62A A138G, the self-cleavage was determined as 0.06.
Turning to U62A A138U, the self-cleavage came to 0.06.
For the variant A59G G126A, the self-cleavage worked out at 0.12.
For U62C C145U the value was 0.
For U62C A124U the value was 0.05; for U62A A142G, 0.02; for U62A G83A, 0.05.
For G60A C99A the value was 0.05; for A59U G127A, 0.65.
On to C63U A141G, for which the self-cleavage came out at 0.36.
As to U62C U102A, the self-cleavage was 0.04.
Consider A64G A107G, for which the self-cleavage is 0.33.
As for G60A A117G, the self-cleavage stood at 0.11.
Consider U62A U104C, for which the self-cleavage came to 0.1.
As to U62A U104A, the self-cleavage is 0.04.
For the variant A59G U132A, the self-cleavage was 0.06.
With A59G G144A, the self-cleavage came to 0.12.
As to U62C C123U, the self-cleavage is 0.01.
Turning to U62C C123G, the self-cleavage was determined as 0.07.
For the variant C61U, the self-cleavage was found to be 0.04.
As to C61A, the self-cleavage amounted to 0.04.
For C61G, the self-cleavage amounted to 0.06.
For A64C C101U, the self-cleavage is 0.28.
For U62C U73A the value was 0.03; for U62C U73G, 0.06.
Take U62C C110A: the self-cleavage came to 0.05.
Take C63A U130C: the self-cleavage came out at 0.05.
For G60A U62C the value was 0.04; for G60A A140U, 0.03; for G60U A79G, 0.05.
Take A59U U96C: the self-cleavage amounted to 0.24.
On to C61A A140G, for which the self-cleavage came out at 0.05.
With C61G C145U, the self-cleavage worked out at 0.03.
Regarding U62C C103A, the self-cleavage is 0.04.
For A64G A117G, the self-cleavage was determined as 0.21.
Turning to U62C A129U, the self-cleavage was determined as 0.01.
Consider U62C A129G, for which the self-cleavage turned out to be 0.06.
For A59U U143A the value was 0.75.
For C61A A129U, the self-cleavage was 0.03.
U62C G97C: the self-cleavage was determined as 0.06.
As to C61U A107G, the self-cleavage is 0.03.
U62C U100C: the self-cleavage was 0.09.
Turning to C61U U62G, the self-cleavage came out at 0.01.
As for U62A C99A, the self-cleavage was 0.03.
As for A64C A138G, the self-cleavage was found to be 0.31.
On to A59U A129U, for which the self-cleavage worked out at 0.51.
Next, A59U A129G: 0.86; A59U A129C: 1.15.
Regarding G60C U134A, the self-cleavage worked out at 0.07.
On to U62A C66U, for which the self-cleavage came out at 0.01.
Take U62C U143C: the self-cleavage stood at 0.06.
In the case of U62C U143A, the self-cleavage was determined as 0.06.
With G60C, the self-cleavage was found to be 0.05.
As for G60A, the self-cleavage was 0.02.
For G60U the value was 0.01; for A59G U134A, 0.08.
For the variant A64C U134C, the self-cleavage worked out at 0.61.
With U62A C103A, the self-cleavage came to 0.04.
With U62A A129G, the self-cleavage stood at 0.06.
On to G60U U100A, for which the self-cleavage worked out at 0.02.
As to C63U U100C, the self-cleavage turned out to be 0.99.
For the variant C63U U100G, the self-cleavage was 0.35.
Regarding A59U U81A, the self-cleavage is 1.53.
In the case of A59U U81C, the self-cleavage worked out at 0.87.
For C63U A129G, the self-cleavage was 0.3.
Consider A59G U81A, for which the self-cleavage was 0.1.
For the variant A59G U81C, the self-cleavage is 0.09.
With G60U A121G, the self-cleavage was found to be 0.
With C63A A129G, the self-cleavage turned out to be 0.09.
Regarding C63A A129U, the self-cleavage was 0.06.
For U62C G83U the value was 0.03; for U62C C99U, 0.04.
For A64C U96C the value was 0.18; for A59U A65G, 0.03.
Take G60A A129U: the self-cleavage was 0.02.
G60A A67G: the self-cleavage was determined as 0.08.
For G60U U91C, the self-cleavage came out at 0.01.
Turning to G60A U104C, the self-cleavage came to 0.07.
As to U62A A79U, the self-cleavage was 0.03.
On to G60A A64G, for which the self-cleavage came to 0.04.
A64C U81A: the self-cleavage was 0.44.
Take A64C U81G: the self-cleavage came to 0.3.
C61U G82A: the self-cleavage was found to be 0.02.
As for U62C U132A, the self-cleavage stood at 0.05.
As for U62C G70U, the self-cleavage came to 0.
A59U A142C: the self-cleavage was 1.03.
Next, A59U A142G: 1.08.

For the origin of these results see the RNAGym collection of RNA variant scans (doi:10.7554/elife.90254).
